Measured values: patent US20240041978A1, “LA PROTEIN AS A NOVEL REGULATOR OF OSTEOCLASTOGENESIS” (The U.S.A., as Represented by the Secretary, Department of …, priority 2021, published 2024)
“Also recorded” adds a separate entry of the source. Peptide text beside a SMILES is read from it. * marks the point of attachment. Cbz = O=C(OCc1ccccc1)*; CH2F = FC*

T1: Anx A5 on PS containing liposomes (Homo sapiens, UniProt P08758)
T1 sequence (P08758 1-320): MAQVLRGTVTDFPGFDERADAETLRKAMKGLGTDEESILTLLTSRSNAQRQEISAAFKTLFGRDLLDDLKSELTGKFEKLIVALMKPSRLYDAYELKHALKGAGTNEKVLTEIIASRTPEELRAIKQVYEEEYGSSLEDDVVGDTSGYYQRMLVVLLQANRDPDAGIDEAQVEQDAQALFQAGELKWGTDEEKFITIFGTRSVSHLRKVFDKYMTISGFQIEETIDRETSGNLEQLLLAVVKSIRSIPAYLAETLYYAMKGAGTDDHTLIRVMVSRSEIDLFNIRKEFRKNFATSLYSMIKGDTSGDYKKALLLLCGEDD


Experiments:
[1] = target: T1, Anx A5 on PS containing liposomes; assay: Liposome binding assay
Excerpt: Anx A5 binds to PS containing membranes in a Ca^2+-dependent manner. Recombinant La was introduced alone or along with recombinant Anx A5 to PS containing liposomes and pelleted liposomes by centrifugation to evaluate whether La was enriched with liposomes or in supernatant (FIG. 12C).
Liposome binding assay: Multilamellar liposomes were formed from pure PC or 9:1 (w/w) mixture of PC and PS. Both lipid compositions were supplemented with 0.5 mol % of lissamine rhodamine phosphatidylethanolamine. To prepare liposomes, lipid stock in benzene/methanol (95:5) was frozen in liquid nitrogen and freeze-dried overnight using SPEEDVAC™ (Savant). Dried lipid was resuspended in aqueous buffer (100 mM NaCl, 10 mM Hepes, pH 7.0) at 1 mM total lipid concentration and vortexed. Proteins and CaCl2 were added to the liposomes and the mixtures were incubated on ice for 30 minutes. To pellet, liposomes were centrifugated at 15,000 g for 20 minutes to pellet, based on rhodamine fluorescence ˜95% of liposomes. Centrifugated samples were then fractionated into a top, liposome-depleted fraction and a bottom fraction containing liposomes and liposome-bound proteins. Fractions were then solubilized via addition of Laemmli buffer (Bio Rad) and separated via SDS-PAGE, as described above. Recombinant La and recombinant Anx A5 were detected via their n-terminal 6×His tag via α-6×His antibody (Abcam) and signals for soluble vs liposome bound protein fractions were evaluated via densitometry. Data were presented as a percentage of protein signal bound to liposomes where: […]

[2] = tested on: human monocyte-derived osteoclasts; assay: Osteoclast fusion assay (number of fusion events, fluorescence microscopy); assay type: cell-based; conditions: for osteoclast multinucleation / fusion: screen of La 188-375 peptide library, control no addition; for formation of multinucleated syncytia (osteoclast fusion): recombinant protein ~40 nM added end of day 2 post-RANKL, overnight
Procedure: Osteoclasts: Elutriated monocytes from healthy donors were obtained. Cells were plated at 2.9×10^5 per cm^2 in 35 mm dishes with polymer coverslip bottoms (Ibidi #81156) for imaging or 35 mm or 10 cm dishes for biochemical experiments in complete media [α-MEM supplemented with 10% Fetal Bovine Serum (FBS) and penicillin-streptomycin-L-glutamine (Gibco Invitrogene #12571063; #26140079 and #10378016, respectively)]. Monocytes were differentiated to M2 macrophages in the presence of 100 ng/ml M-CSF for 6 days and then differentiated with 100 ng/ml M-CSF and 100 ng/ml RANKL for 3 days unless indicated otherwise. RAW 264.7 cells (ATCC, Manassas, VA, #TIB-71) were maintained in DMEM supplemented with 10% FBS to a maximum of 8 passages. RAW 264.7 cells were differentiated to osteoclasts in the presence of 100 ng/ml murine RANKL for 5 days. To separate unfused mononucleated and fused, multinucleated RAW 264.7 cells into separate fractions, advantage was taken of the much stronger adherence of multinucleated cells to culture dish plastic. After washing in PBS, mixed RAW cultures (following RANKL differentiation) were left in Ca^2+ and Mg^2+ free PBS for 10 minutes at room temperature. Culture dishes were then tapped on the lab bench and a large portion of unfused, mononucleated RAW cells were released, and these released cells were collected via centrifugation. This process was repeated 2-4 times until dishes were left with a population of primarily fused, multinucleated syncytia. Mononucleated and multinucleated cell fractions were then processed for biochemical or imaging experiments as described below.
Constructs & Recombinant proteins & Transfection: Recombinant La 1-408, 1-375, 1-375 Q20A_Y24A_D33I, 1-187 and 188-375 were amplified with primers designed with overlapping sequences and inserted between NdeI/HindIII in the V78 pET28A E. coli expression vector, adding to each a N-terminal 6×his affinity tag. La 1-408 was expressed as a recombinant protein in E. coli and purified using IMAC columns by SD Biosciences (San Diego, CA). The remaining constructs were transformed into BL2 (DE3) chemically competent E. coli (Thermo Fisher Scientific) and protein expression was induced with IPTG. Cells were lysed with Bugbuster (Sigma), and 6×his-La proteins were affinity purified using HisPur Cobalt Spin columns (Thermo Fisher Scientific), each according to the manufacturer's instructions. Endotoxin contaminates were depleted from affinity purified 6×his-La proteins using Pierce high-capacity endotoxin removal columns (Thermo Fisher Scientific), according to the manufacturer's instructions. Proteins were then sterile filtered, aliquoted and kept at −80 C.
Plasmids were introduced into primary osteoclasts at day 2 of RANKL stimulation via jetPRIME (Polyplus Transfection). FLAG-La 1-408, FLAG-La 1-375 and FLAG-La 1-375 Q20A_Y24A_D33I plasmids were a gift of the Maraia Lab (NICHD). Briefly, SSB (UniProt P05455) was inserted between HindIII and BamHI the pFLAG-CMV2 vector (Sigma). “Uncleavable” La was produced by taking the FLAG-La 1-408 plasmid and making two point mutations at amino acids D371A and D374A, abrogating the caspase cleavage sites at the C-terminal region of the protein (Emory Integrated Genomics Core). siRNA were introduced into primary osteoclasts after 1 day of RANKL stimulation via Lipofectamine RNAiMAX (Thermo Fisher Scientific). Non-targeted (Cat #4390843) and SSB-targeted (Cat #4392420_ID:s13469) siRNA were introduced at a concentration of 5 ng/ml (Silencer Select, Ambion).
Fusion Assays: Osteoclast fusion in the culture systems was evaluated by fluorescence microscopy (Verma et al., J Biol Chem 293, 254-270, doi:10.1074/jbc.M117.809681 (2018)). Briefly, cells were fixed with 4% paraformaldehyde at timepoints of interest, permeabilized with 0.1% TRITON™ X-100 and blocked with 5% FBS. Cells were then stained with phallodin-ALEXAFLURO®488 and Hoechst to label cells' actin cytoskeleton and nuclei, respectively. […]

[3] = tested on: production of LMW La in human osteoclasts; assay: La cleavage and localization in differentiating osteoclasts with caspase inhibitor (Western blot, immunofluorescence); assay type: cell-based; conditions: for production of LMW (cleaved) La: Western blot, differentiating human osteoclasts, Day 3-4 post-RANKL
Procedure: To identify the functional form of La associated with osteoclastogenesis, the relationship was determined between the appearance of LMW La and fusion between osteoclasts. During apoptotic progression human La is cleaved by caspases at […], removing La's NLS (Rutjes et al., Cell Death Differ 6, 976-986, doi:10.1038/sj.cdd.4400571 (1999); Ayukawa et al., J Biol Chem 275, 34465-34470, doi:10.1074/jbc.M003673200 (2000)).
Biochemical approaches: Cells were lysed on ice via pulse sonication and rotated end over end at 4° C. for 45 minutes in the presence of protease inhibitors (cOmplete, Sigma, #118361700010). Steady-state protein levels were evaluated via SDS-PAGE followed by immunoblotting. Bulk proteins were evaluated via SDS-PAGE followed by silver stain (SilverQuest, Thermo Fisher Scientific). Bands of interest were cut from silver stained gels, destained and evaluated by liquid chromatography coupled with tandem mass spectrometry (Proteomics Core, NHLBI). The selective enrichment of cytosolic vs membrane associated protein fractions was carried out using MEM-PER™ Plus Membrane Protein Extraction Kit (Thermo Fisher Scientific, catalogue #89842) according to the manufacturer's instructions.
Fluorescence Microscopy Imaging: In the immunofluorescence experiments the cells were washed with PBS and fixed with warm freshly prepared 4% formaldehyde in PBS (Sigma, F1268) at 37° C. The cells were washed three times with PBS. To permeabilize the cells, they were incubated for 5 min in 0.1% TRITON™ X100 in PBS. The cells were again washed three times with PBS and placed into PBS with 10% FBS, for 10 min at the room temperature to suppress non-specific binding. Then the cells were incubated with primary antibodies for 1 hour in PBS with 10% FBS. […]

| Molecule | osteoclast multinucleation / fusion [2] | formation of multinucleated syncytia (osteoclast fusion) [2] | other results |
| --- | --- | --- | --- |
| Anx A5: recombinant annexin A5, PS-binding peripheral membrane protein [reference compound] | – | – | pelleting with liposomes ([1]; PS containing liposomes, La with Anx A5, Ca^2+): pelleted with liposomes; pelleting with liposomes ([1]; liposomes lacking PS): neither La nor Anx A5 pelleted |
| GEVEKEALKKIIEDQQESLNKWKSKGRRFK (inhibitory La peptide) [Peptide 9] | inhibit fusion and the formation of multinucleated osteoclasts; also recorded: specifically inhibit | – | – |
| COC(=O)C[C@H](NC(=O)[C@H](C)NC(=O)[C@@H](NC(=O)OCc1ccccc1)C(C)C)C(=O)CF [z-VAD, z-VAD-fmk] (Cbz-Val-Ala-Asp(OMe)-CH2F) | – | – | ability of osteoclasts to form multinucleated syncytia ([2]; pan caspase inhibitor vs vehicle, Day 3 post-RANKL): significantly perturbed; production of LMW (cleaved) La [3]: blocked; production of LMW (cleaved) La ([3]; listed as z-VAD-fmk): block the production of cleaved La; localization of FL La ([3]; α-FL La immunofluorescence, Day 3): premature retention of FL La within the nuclei |
| AKLRAKQEQEAKQKLEEDAEMKSLEEKIGC (inhibitory La peptide) [Peptide 2] | inhibit fusion and the formation of multinucleated osteoclasts; also recorded: specifically inhibit | – | – |
| La 1-408: recombinant full-length human La protein, N-terminal 6×his tag (protein, listed as Homo sapiens, N-terminal 6xHis tag, recombinant full-length human La protein, N-terminal 6×his tag) MAENGDNEKMAALEAKICHQIEYYFGDFNLPRDKFLKEQIKLDEGWVPLEIMIKFNRLNRLTTDFNVIVEALSKSKAELMEISEDKTKIRRSPSKPLPEVTDEYKNDVKNRSVYIKGFPTDATLDDIKEWLEDKGQVLNIQMRRTLHKAFKGSIFVVFDSIESAKKFVETPGQKYKETDLLILFKDDYFAKKNEERKQNKVEAKLRAKQEQEAKQKLEEDAEMKSLEEKIGCLLKFSGDLDDQTCREDLHILFSNHGEIKWIDFVRGAKEGIILFKEKAKEALGKAKDANNGNLQLRNKEVTWEVLEGEVEKEALKKIIEDQQESLNKWKSKGRRFKGKGKGNKAAQPGSGKGKVQFQGKKTKFASDDEHDEHDENGATGPVKRAREETDKEEPASKQQKTENGAGDQ | – | significantly promoted | – |
| heat-inactivated La 1-408: recombinant heat-inactivated La 1-408 (protein, UniProt P05455 1-408, looked up, full-length heat-inactivated) MAENGDNEKMAALEAKICHQIEYYFGDFNLPRDKFLKEQIKLDEGWVPLEIMIKFNRLNRLTTDFNVIVEALSKSKAELMEISEDKTKIRRSPSKPLPEVTDEYKNDVKNRSVYIKGFPTDATLDDIKEWLEDKGQVLNIQMRRTLHKAFKGSIFVVFDSIESAKKFVETPGQKYKETDLLILFKDDYFAKKNEERKQNKVEAKLRAKQEQEAKQKLEEDAEMKSLEEKIGCLLKFSGDLDDQTCREDLHILFSNHGEIKWIDFVRGAKEGIILFKEKAKEALGKAKDANNGNLQLRNKEVTWEVLEGEVEKEALKKIIEDQQESLNKWKSKGRRFKGKGKGNKAAQPGSGKGKVQFQGKKTKFASDDEHDEHDENGATGPVKRAREETDKEEPASKQQKTENGAGDQ | – | not observed | – |
| La 188-375: recombinant amino acids 188-375 of human La (protein, listed as Homo sapiens) YFAKKNEERKQNKVEAKLRAKQEQEAKQKLEEDAEMKSLEEKIGCLLKFSGDLDDQTCREDLHILFSNHGEIKWIDFVRGAKEGIILFKEKAKEALGKAKDANNGNLQLRNKEVTWEVLEGEVEKEALKKIIEDQQESLNKWKSKGRRFKGKGKGNKAAQPGSGKGKVQFQGKKTKFASDDEHDEHDE | promoted fusion | greatly promoted | – |
| La 1-187: recombinant N-terminal half of La 1-375 (protein, UniProt P05455 1-187, looked up, fragment) MAENGDNEKMAALEAKICHQIEYYFGDFNLPRDKFLKEQIKLDEGWVPLEIMIKFNRLNRLTTDFNVIVEALSKSKAELMEISEDKTKIRRSPSKPLPEVTDEYKNDVKNRSVYIKGFPTDATLDDIKEWLEDKGQVLNIQMRRTLHKAFKGSIFVVFDSIESAKKFVETPGQKYKETDLLILFKDD | – | no effect | – |
